This is an account of results in paper PMC4837482, “The complex binding mode of the peptide hormone H2 relaxin to its receptor RXFP1” (Nature Communications, 2016).

Where no end group is shown, it is not given here. The star is where a group is joined. DTPA = O=C(O)CN(CCN(CC(=O)O)CC(=O)O)CCN(CC(=O)O)CC(=O)*

Holding throughout (assay): europium-labelled ligand saturation binding on cells (time-resolved fluorescence); HEK293T cells transiently transfected with receptor, 96-well plates; increasing Eu-H2 relaxin (maximum 15 nM) with or without 1 μM unlabelled H2 relaxin, 1 h, room temperature; 20 mM HEPES pH 7.5, […] CaCl2, 50 mM NaCl, 0.01% NaN3, 1% BSA; one-site fit
For assay [1], the target named is RXFP1 G45A, full length (human).
The target of assay [2] is RXFP1 D42A, full length (human).
Assay [3] concerns the target RXFP1 Y57A, full length (human).
For assay [4], the target named is RXFP1 S47A/L48A, full length (human).
Assay [5] deals with RXFP1 F50A^ins, full length (human).
Assay [6] addresses RXFP1 F54A, full length (human).
The target in assay [7] is RXFP1 N44A, full length (human).
Assay [8] concerns the target RXFP1 T61A, full length (human).
In assay [9] the target is RXFP1 N43A/N44A, full length (human).
Assay [10] addresses RXFP1 G41A, full length (human).
The target of assay [11] is RXFP1 Y58A, full length (human).
The target in assay [12] is RXFP1 F50A, full length (human).
For assay [13], the target named is RXFP1 A55S, full length (human).
The target in assay [14] is RXFP1 F54A/Y58A, full length (human).
Assay [15] concerns the target RXFP1 M60A, full length (human).

B1: Europium-labelled H2 relaxin (ligand, human)
chain 1: {DTPA}-QLYSALANKCCHVGCTKRSLARFC
chain 2: DSWMEEVIKLCGRELVRAQIAICGMSTWS
modifications: not fully specified; ends and bridges not checked; also: DTPA cage loaded with Eu^3+
notes: A chain of human gene-2 (H2) relaxin; numbers count on: the A chain; B chain of human gene-2 (H2) relaxin; numbers count on: the B chain; also called Eu-H2 relaxin; Eu-H2
For B1, the equilibrium dissociation constant (Kd) amounted to 19.1 nM in assay [1]; 20.7 nM in [2]; 0.81 nM in [3]; 0.43 nM in [4]; 16.7 nM in assay [5]; 2.43 nM in [6]. Further, the Kd in assay [7] is 0.81 nM; in assay [8] it was 0.69 nM; in assay [9], 3.28 nM; in assay [10], 0.95 nM; in assay [11], 1.56 nM; in [12] it was 6.48 nM. Besides, the figures for the Kd in [13], in assay [14] and in assay [15] were 0.8 nM, 6.51 nM and 1.08 nM, respectively.
